According to patent US20250340661A1, “ANTI CD40 ANTIBODY, ANTIGEN BINDING FRAGMENT AND MEDICAL USE THEREOF” (Jiangsu Hengrui Pharmaceuticals Co., Ltd., priority 2021, published 2025):

Tests used:
[1] = biological target: human CD40 on the cell surface (human) (UniProt P25942); experiment: flow cytometry on Raji cells, AF647 anti-human IgG detection
[2] = biological target: human CD40 on the cell surface (human) (UniProt P25942); experiment: flow cytometry on Raji cells, Alexa Fluor 488 anti-human IgG (H+L) detection
[3] = biological target: his-tagged human CD40 (h-CD40-his) recombinant protein (human) (UniProt P25942); experiment: SPR (Biacore), antibody captured on anti-human Fc chip, His-tagged CD40 as analyte, 1:1 model
Chain of his-tagged human CD40 (h-CD40-his) recombinant protein (human) (P25942 21-193 limits assumed): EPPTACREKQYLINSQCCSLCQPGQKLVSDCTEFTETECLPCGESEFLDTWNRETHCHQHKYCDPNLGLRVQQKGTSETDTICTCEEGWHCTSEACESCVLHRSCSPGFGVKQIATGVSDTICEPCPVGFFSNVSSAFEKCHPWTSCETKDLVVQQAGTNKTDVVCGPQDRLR

[4] = biological target: human CD40 on the cell surface (human) (UniProt P25942); experiment: cell-based or functional assay

Chain of human CD40 on the cell surface (human) (P25942 21-277): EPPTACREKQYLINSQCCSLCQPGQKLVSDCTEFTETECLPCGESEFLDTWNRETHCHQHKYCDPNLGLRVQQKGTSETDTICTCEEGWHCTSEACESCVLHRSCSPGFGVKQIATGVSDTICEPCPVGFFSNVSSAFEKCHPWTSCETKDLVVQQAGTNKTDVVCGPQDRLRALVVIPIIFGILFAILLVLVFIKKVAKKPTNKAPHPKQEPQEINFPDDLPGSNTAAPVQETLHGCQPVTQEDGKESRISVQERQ

## anti-CD40 antagonistic antibody CFZ533 (iscalimab)
[1]
  EC50: 2.41 nM
[2]
  EC50: 1.01 nM
[3]
  Kd: 0.205 nM
  koff: 0.000141 s⁻¹
  kon: 688000 M⁻¹ s⁻¹
[4]
  B cell activation assay, CD19+CD69+ % IC50: 0.14 nM
  B cell activation assay, CD19+CD69+ % Maximum inhibition rate: 95%
  B cell activation assay, CD19+CD69+ MFI IC50: 0.07 nM
  B cell activation assay, CD19+CD69+ MFI Maximum inhibition rate: 110%
  IC50 for the inhibition of CD40 reporter gene cell activity (Assay 1): 0.36 nM
  IC50 for the inhibition of CD40 reporter gene cell activity (Assay 2): 0.35 nM
  IC50 in DC cell activation assay system, CD80 MFI: 1.19 nM
  IC50 in DC cell activation assay system, CD86 MFI: 1.93 nM
  IC50 in DC cell activation assay system, IL-12/23 p40: 0.68 nM
  IC50 in DC cell activation assay system, TNFα: 0.35 nM
  reporter gene cell activity IC50 (HEK-Blue CD40L cells, SEAP): 0.272 nM
